Assays:
[1] = target: human CD36 (cluster of differentiation 36), ectodomain, Fc-fusion (human); test: BLI; Octet RED96; Fc-tagged receptor immobilised on protein G (ProG) biosensor, twofold serial dilution of His-tagged parasite ligand in HBS; KD from the response in equilibrium against concentration
[2] = target: T1, Plasmodium vivax Duffy binding protein region II (PvDBP-RII), residues 194 to 521, His-tagged (Plasmodium vivax, UniProt P22290 194-521, biotin (biotinylated with co-transfected secreted E. coli BirA and D-biotin, for the ELISA bait)); test: as above; details: both partners purified
T1 construct: source: HEK293E, transfected, culture supernatant, purified (Ni-NTA agarose); not shown: His, C-terminal, kept

Molecule | Kd [1] [nM] | Kd [2] [nM]
Plasmodium vivax merozoite-specific thrombospondin-related anonymous protein (PvMTRAP), full-length ectodomain, His-tagged (domain or fragment) | 37 | –
Duffy antigen receptor for chemokines (DARC, CD234), residues 1 to 63, Fc-fusion (Fc fusion, human, UniProt Q16570 1-63, looked up, Duffy antigen receptor for chemokines (CD234), human, residues 1 to 63; also called human DARC; source: HEK293E, transfected, culture supernatant, purified (HiTrap Protein G HP); not shown: Fc, C-terminal, kept) MGNCLHRAELSPSTENSSQLDFEDVWNSSYGVNDSFPDGDYGANLEAAAPCHSCNLLDDSALP | – | 7.7

— PMC10658926, “Plasmodium vivax merozoite-specific thrombospondin-related anonymous protein (PvMTRAP) interacts with human CD36, suggesting a novel ligand–receptor interaction for reticulocyte invasion” (Parasites & Vectors, 2023)
